{"source": "the DeepSol protein solubility set", "data": [{"experiment": "soluble on expression in E. coli; label from the status in PepcDB or PDB records", "values": [{"sequence": "MAAQVTLEDALSNVDLLEELPLPDQQPCIEPPPSSLLYQPNFNTNFEDRNAFVTGIARYIEQATVHSSMNEMLEEGQEYAVMLYTWRSCSRAIPQVKCNEQPNRVEIYEKTVEVLEPEVTKLMNFMYFQRNAIERFCGEVRRLCHAERRKDFVSEAYLITLGKFINMFAVLDELKNMKCSVKNDHSAYKRAAQFLRKMADPQSIQESQNLSMFLANHNKITQSLQQQLEVISGYEELLADIVNLCVDYYENRMYLTPSEKHMLLKVMGFGLYLMDGSVSNIYKLDAKKRINLSKIDKYFKQLQVVPLFGDMQIELARYIKTSAHYEENKSRWTCTSSGSSPQYNICEQMIQIREDHMRFISELARYSNSEVVTGSGRQEAQKTDAEYRKLFDLALQGLQLLSQWSAHVMEVYSWKLVHPTDKYSNKDCPDSAEEYERATRYNYTSEEKFALVEVIAMIKGLQVLMGRMESVFNHAIRHTVYAALQDFSQVTLREPLRQAIKKKKNVIQSVLQAIRKTVCDWETGHEPFNDPALRGEKDPKSGFDIKVPRRAVGPSSTQLYMVRTMLESLIADKSGSKKTLRSSLEGPTILDIEKFHRESFFYTHLINFSETLQQCCDLSQLWFREFFLELTMGRRIQFPIEMSMPWILTDHILETKEASMMEYVLYSLDLYNDSAHYALTRFNKQFLYDEIEAEVNLCFDQFVYKLADQIFAYYKVMAGSLLLDKRLRSECKNQGATIHLPPSNRYETLLKQRHVQLLGRSIDLNRLITQRVSAAMYKSLELAIGRFESEDLTSIVELDGLLEINRMTHKLLSRYLTLDGFDAMFREANHNVSAPYGRITLHVFWELNYDFLPNYCYNGSTNRFVRTVLPFSQEFQRDKQPNAQPQYLHGSKALNLAYSSIYGSYRNFVGPPHFQVICRLLGYQGIAVVMEELLKVVKSLLQGTILQYVKTLMEVMPKICRLPRHEYGSPGILEFFHHQLKDIVEYAELKTVCFQNLREVGNAILFCLLIEQSLSLEEVCDLLHAAPFQNILPRVHVKEGERLDAKMKRLESKYAPLHLVPLIERLGTPQQIAIAREGDLLTKERLCCGLSMFEVILTRIRSFLDDPIWRGPLPSNGVMHVDECVEFHRLWSAMQFVYCIPVGTHEFTVEQCFGDGLHWAGCMIIVLLGQQRRFAVLDFCYHLLKVQKHDGKDEIIKNVPLKKMVERIRKFQILNDEIITILDKYLKSGDGEGTPVEHVRCFQPPIHQSLASS", "soluble on expression in E. coli": "not soluble"}, {"sequence": "IHFTTEVITSRIEPANRYVAEKLRITPGQDILYLERLRSIGDEKAMLIENRINIELCPGIVEIDFNQHNLFPTIESLSKRKIRYSESRYAARLIGNERGHFLDISEDAPVLHLEQLVFFSRELPVEFGNVWLKG", "soluble on expression in E. coli": "not soluble"}, {"sequence": "MSNGIVIIGSGFAARQLVKNIRKQDATIPLTLIAADSMDEYNKPDLSHVISQGQRADDLTRQTAGEFAEQFNLHLFPQTWVTDIDAEARVVKSQNNQWQYDKLVLATGASAFVPPVPGRELMLTLNSQQEYRACETQLRDARRVLIVGGGLIGSELAMDFCRAGKAVTLIDNAASILASLMPPEVSSRLQHRLTEMGVHLLLKSQLQGLEKTDSGIQATLDRQRNIEVDAVIAATGLRPETALARRAGLTINRGVCVDSYLQTSNTDIYALGDCAEINGQVLPFLQPIQLSAMVLAKNLLGNNTPLKLPAMLVKIKTPELPLHLAGETQRQDLRWQINTERQGMVARGVDDADQLRAFVVSEDRMKEAFGLLKTLPM", "soluble on expression in E. coli": "not soluble"}, {"sequence": "MGSDKIHHHHHHMNFSTTEIQTIFNANEAASAVLNQALEAAAQGTFAVGGMIVDNQTGNVICAMHNNVLKPLFGSSQNFTFDPTAHGERQLVYWYYANRHQLNLPDPEYLTIITTLDPCAMCAGTLLTAGFNVGVIAIDDFAGINYNQTFNFDTLPPDLRPLAKRKFGYYACGIKGVDPDIYVRGYVGGPNVAFKDSVVSVQNLTGCNNVFQANVEAVRNNSSNSGKAPQELFDPAALPDDAPVKLRYRELYADAFRLKIDNPRLPDKNLLDLLLYVKGSNPTAQNAVALLDPFGNVVLCMPDTFENSPVETAFMNVTQAYAITRYQLMNDPFARAQAYDYLTHPKYGTFVFLNAPNPADARTIMTLGAYGSTMEGPVPQIFPSNFQYYFLPQYGTEREFRLDIMNLPPFYTQLAQLSAMQVANY", "soluble on expression in E. coli": "not soluble"}, {"sequence": "GPGSMHFPSIVFRRHGGRQWMQQQSRDPFVLEARRRGYVARSAFKLLEMDDKFTLFSRGNTRVVVDIGCSPGSWLQVIRERCGDKCAVFGVDVLRVASTVTGAVCIQGDFTNPAVREELLARMVTVRAAGVVDVVTSDMCLNRGTGSTSDRQKQEELNRSALAFALEQLVPGGNFVCKVLGSPTAYEELRRDTCRWFVRTDICKPSSSRLTSDEAFMVCRGKREIPRDRSGGCDGTYGGRFGLDDWPGQLRGSPRRRKP", "soluble on expression in E. coli": "not soluble"}, {"sequence": "SGKMVSVINTVDTSHEDMIHDAQMDYYGTRLATCSSDRSVKIFDVRNGGQILIADLRGHEGPVWQVAWAHPMYGNILASCSYDRKVIIWREENGTWEKSHEHAGHDSSVNSVCWAPHDYGLILACGSSDGAISLLTYTGEGQWEVKKINNAHTIGCNAVSWAPAVVPGSLIDHPSGQKPNYIKRFASGGCDNLIKLWKEEEDGQWKEEQKLEAHSDWVRDVAWAPSIGLPTSTIASCSQDGRVFIWTCDDASSNTWSPKLLHKFNDVVWHVSWSITANILAVSGGDNKVTLWKESVDGQWVCISDVNKGQGSVSASVTEGQQNEQ", "soluble on expression in E. coli": "soluble"}, {"sequence": "MPYPKKVTIKEVGPRDGLQNEPVWIATEDKITWINQLSRTGLSYIEITSFVHPKWIPALRDAIDVAKGIDREKGVTYAALVPNQRGLENALEGGINEACVFMSASETHNRKNINKSTSESLHILKQVNNDAQKANLTTRAYLSTVFGCPYEKDVPIEQVIRLSEALFEFGISELSLGDTIGAANPAQVETVLEALLARFPANQIALHFHDTRGTALANMVTALQMGITVFDGSAGGLGGCPYAPGSSGNAATEDIVYMLEQMDIKTNVKLEKLLSAAKWIEEKMGKPLPSRNLQVFKSSLEHHHHHH", "soluble on expression in E. coli": "soluble"}, {"sequence": "MAHHHHHHMNSTDTKQSAGYFKEKATIGLSSFSGDEIVKAILKTTSHLLKAPKEKYMQKLVAASYGQYGSGLREGLPINEFIVRELEKRSHTHNWIVVLKTMVSFHRLMCDASDSMVETICYYRHVFRASNIKNLADTADGAGQAYFIAQYMTYLEERCVMQSALGKGRRVEIREFEEYLETLNAKSLQPVFEILLRLFEAVPAVEYREAVVNNFCTLEAYQLLVRDGKQLFQHLAKRVIFILDGFEDFSLPEKRRWFDLYRRYASAFASVKQYFDSMLCSSRVFLEPVPKLKPLPESLLTRLEGDIRASETAKEGLCTLESLGICSREDSRVDSKEEKIRPPRAPEPAVVNQSEAVTALTPAAPTVSLDDLFVPSQEPTKPVQPASCPASWTPAPLAATSFQQGSEQFQWETGVPQNWGSGGHITLQAIATPPVPPPQHAFSGGAPPPAGEGALYPLVQSALKQPPPPVQFKKPADPLKDLYNSCHWQSN", "soluble on expression in E. coli": "not soluble"}, {"sequence": "MAHHHHHHMKQSKLVSRPSKTKKPKERKDRREDERYQREMDALIAREVARENVSMRSDTHKPQPKLLEEVQKDTSRRPKTPTSLSTAAVEKQAKIDKESGFQPVVNQRKERQQQQHQQQQTSAPKPMLVNEALERKLNHFFSNLNRKEKLTRLSQPEENPTASKGATIIVRKDIANARSWQQQQQ", "soluble on expression in E. coli": "soluble"}, {"sequence": "MGIFSERLKEAMQQANITSAQLSKQTGIGRSSISQWLSNKYVAKHDKVTALAAVLNVSPDWLLGTTDVATAVSPEAVPIPVSVTPTPAVDPELITLWEQLDTKQRSKLIKKARKLLTKSAEQPNTKRKKNKKKKKGKKRK", "soluble on expression in E. coli": "not soluble"}, {"sequence": "MSLEAVKTIEKEKKDLEQKRIEEATEEEIKPGDHVKMEGGTSVGKVVEVKSGTALVDFGFLRLKVPVSKLRKTKKEEKKETSTFSYKPSSFRTEIDIRGMTVEEAEPVVKKFIDDLMMNGISKGYIIHGKGTGKLASGVWEILRKDKRVVSFRFGTPSEGGTGVTVVEVKEGHHHHHH", "soluble on expression in E. coli": "soluble"}, {"sequence": "STQVSQATSQPINFQVQKDGSSEKSHMDDYMQHPGKVIKQNNKYYFQTVLNNASFWKEYKFYNANNQELATTVVNDNKKADTRTINVAVEPGYKSLTTKVHIVVPQINYNHRYTTHLEFEKAIPTLADAAK", "soluble on expression in E. coli": "not soluble"}, {"sequence": "GPGSMLTLRKQTLPVATATLLLQRRGVEYWGSSVTGRTQPYAQGDLIPRVDNMRHVVSKSSSAAANLTGSNLGVAYDSDTIFSVAGYSRAEKEHYRPLRGIARYKIEPMAESDTVAAQGLLEQAEMSKSISFVVSWWGGVLKDFPSLKKVCDDTFKEEFTSFYKSALSVAHDDAAVKALAVPFVRRQMQEHYISFPMFWRIAEKLADAIEKVPQMQKPARSVSRIAVERVTKIALNTIADEPWALDEMTSPLLFDVSNFRAWHEAGNW", "soluble on expression in E. coli": "not soluble"}]}]}
